Assay results taken from publication PMC11580166, “VPS26 Moonlights as a β-Arrestin-like Adapter for a 7-Transmembrane RGS Protein in Arabidopsis thaliana” (Biochemistry, 2024).

B1: Vacuolar Protein Sorting-Associated 26B (AtVPS26B) [Arabidopsis thaliana] / Vacuolar Protein Sorting-Associated 26A (AtVPS26A) [Arabidopsis thaliana] (parent complex)
chain 1: MNYLLGAFKPACNISITFSDGKNRKQVPMKKENGQTALVPLFHSQDTISGKVCIEPYQGKKVEHNGVKVELLGQIEMYFDRGNFYDFTSLVRELDVPGEIYERKTYPFEFPTVEMPYETYNGVNVRLRYVLKVTVTRGYAGSILEYQELVVRNYAPLPDINNSIKMEVGIEDCLHIEFEYNKSKYHLKDVILGKIYFLLVRIKMKNMDLEIRRRESTGAGANTHVETETLAKFELMDGTPVRGESIPVRLFLAPYDLTPTHRNINNKFSVKYYLNLVLVDEEDRRYFKQQEITLYRLKEDASS
chain 2: MNYLLGAFKPACNISITFTDGKNRKQVPTKKDNGQIVMNPLFQSQETIAGKINIEPYQGKKVEHNGVKVELLGQIEMYFDRGNFYDFTSLVREIDVPGEIYERKTYPFEFSSVEMPYETYNGVNVRLRYVLKVTVTRGYAGSIVEYQDFVVRNYVPLPPINNSIKMEVGIEDCLHIEFEYNKSKYHLKDVILGKIYFLLVRIKIKNMDLEIRRRESTGAGANTHVETETLAKFELMDGAPVRGESIPVRVFLTPYDLTPTHKNINNKFSVKYYLNLVLVDEEDRRYFKQQEITLYRLKEETS

Variants of: B1
Assay: Microscale Thermophoresis (MST); parent: 18 nM

| Variant | Kd |
| --- | --- |
| chain 1 MNYLLGAFKPACNISITFSDGKNRKQVPMKKENGQTALVPLFHSQDTISGKVCIEPYQGKKVEHNGVKVELLGQIEMYFDRGNFADFTSLVRALDVPGEIYERKTYPFEFPTVEMPYETYNGVNVRLRYVLKVTVTRGYAGSILEYQELVVRNYAPLPDINNSIKMEVGIEDCLHIEFEYNKSKYHLKDVILGKIYFLLVRIKMKNMDLEIRRRESTGAGANTHVETETLAKFELMDGTPVRGESIPVRLFLAPYDLTPTHRNINNKFSVKYYLNLVLVDEEDRRYFKQQEITLYRLKEDASS [chain 1 Y85A, chain 1 E93A] | 525 nM |
